In publication doi:10.1101/2021.03.29.437564 (bioRxiv, 2021):

Molecular target: the molecule itself
Test: direct infusion mass spectrometry

B1: ParD antitoxin (PA0125) from Pseudomonas aeruginosa, wild type (natural protein)
chain: MSTVVSFRADDALVAALDELARATHRDRPYHLRQALAQYLERQQWQVAAIDEGLADANAGRLLEHIEIEKRWGLQ
stoichiometry N: 2
